Measured values: patent publication US20250320312A1 (OXITOPE PHARMA B V, published 2025)

Experiments:
Experiment in all cases: scFv ELISA
[1] = target: Peptide 5: Biotin-…-[Tyr(PC)]-acid
[2] = target: Peptide 1: Biotin-…-[Tyr(PC)]-acid
BSA = BSA (UniProt P02769)
[3] = target: T1, Peptide 4: Biotin-AGGGGSGGGGSGGGGSAAA-Tyr-acid (N-terminal biotin; C-terminal acid)
T1 construct: control peptide without PC
T1 peptide: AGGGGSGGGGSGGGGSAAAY
Procedure: (§1) For ELISA analysis of scFv binding, 96-well polystyrene plates were coated with Peptide 1, 4, 5, 8 or 100 μL BSA (10 μg/mL) in PBS at 4° C. overnight. Plates were washed three times with PBS-Tween and blocked with 100 μL 1% BSA-TBS for 1 hour at room temperature. 96-well streptavidin coated plates were coated with 100 μL biotinylated PC-peptides (1 μg/mL) in PBS for 1 hour at room temperature.
(§2) All plates were washed three times with PBS-Tween before 40 μL aliquots of PPE were added to assay plates along with 50 μL 10% BSA, and plates were incubated for 1 hour at room temperature. After washing, […] HRP conjugated anti-V5 in 5% BSA was added, and plates were incubated at room temperature for 30 mins. Plates were washed and 100 μL TMB substrate was added. Color was left to develop at room temperature before the reaction was stopped with 100 μL 1N HCl. The amount of scFv bound to each well was quantitated from absorbance measurement at 450 nm (OD450).

[4] = target: T2, Peptide 8: Biotin-AEAAAKEAAAKEAAAKEAAAKAAA-Tyr-acid (N-terminal biotin; C-terminal acid)
T2 construct: control peptide without PC
T2 peptide: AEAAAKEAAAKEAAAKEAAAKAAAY
Procedure: as §1, §2

Chain of BSA (P02769 25-607 limits assumed): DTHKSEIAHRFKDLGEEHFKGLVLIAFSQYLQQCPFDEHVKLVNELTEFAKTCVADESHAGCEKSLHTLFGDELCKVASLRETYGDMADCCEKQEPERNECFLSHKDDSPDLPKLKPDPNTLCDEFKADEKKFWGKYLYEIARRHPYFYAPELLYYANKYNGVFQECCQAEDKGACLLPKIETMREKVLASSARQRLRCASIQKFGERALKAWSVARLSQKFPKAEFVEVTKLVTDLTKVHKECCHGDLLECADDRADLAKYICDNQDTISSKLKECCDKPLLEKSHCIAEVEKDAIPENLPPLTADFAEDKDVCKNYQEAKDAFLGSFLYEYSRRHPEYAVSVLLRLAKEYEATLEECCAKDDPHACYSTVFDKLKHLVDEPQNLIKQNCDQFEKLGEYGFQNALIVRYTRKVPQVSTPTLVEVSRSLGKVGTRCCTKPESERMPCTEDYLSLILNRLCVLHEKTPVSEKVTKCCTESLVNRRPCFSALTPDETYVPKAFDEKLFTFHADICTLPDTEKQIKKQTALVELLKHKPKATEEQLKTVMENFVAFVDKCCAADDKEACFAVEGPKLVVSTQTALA

Row | Binder | OD450 [1] [OD450] | OD450 [2] [OD450] | OD450 (BSA) [OD450] | OD450 [3] [OD450] | OD450 [4] [OD450]
1 | PcOxP_DB01_D02 (scFv, V domains shown, scFv in periplasmic extract) VH: EVQLLESGGGLVQPGGSLRLSCAASGFEFSDFYMEWVRQAPGKGLEWVAASRGKGNSYTTEYADSVKGRFTISRDNSKNTLYLQMNSLRAEDTAVYYCARDYYGSSYWYFDVWGQGTLVTVSS VL: DIQMTQSPSSLSASVGDRVTITCTASESLYSSKHKVHYLAWYQQKPGKAPKLLIYGASNRYIGVPSRFSGSGSGTDFTLTISSLQPEDFATYYCGQFYSYPLTFGGGTKVEIK | 1.27 | 0.56 | 0.09 | 0.05 | 0.05
2 | PcOxP_DB01_E06 (scFv, V domains shown, scFv in periplasmic extract) VH: EVQLLESGGGLVQPGGSLRLSCAASGFTFSDQYMEWVRQAPGKGLEWVAASRNKANDYTTEYADSVKGRFTISRDNSKNTLYLQMNSLRAEDTAVYYCARDYYGSSYWYFDLWGQGTLVTVSS VL: DIQMTQSPSSLSASVGDRVTITCTASESLYSSKHKVHYVAWYQQKPGKAPKLLIYGASNRYIGVPSRFSGSGSGTDFTLTISSLQPEDFATYYCAQFYYYPLTFGGGTKVEIK | 1.05 | 0.68 | 0.09 | 0.05 | 0.05
3 | PcOxP_DB01_D05 (scFv, V domains shown, scFv in periplasmic extract) VH: EVQLLESGGGLVQPGGSLRLSCAASGFTFSDGYMEWVRQAPGKGLEWVAASRNKANDYTTEYADSVKGRFTISRDNSKNTLYLQMNSLRAEDTAVYYCARDYYGSPYWYFDVWGQGTLVTVSS VL: DIQMTQSPSSLSASVGDRVTITCTASESLYSSKHKVHYLAWYQQKPGKAPKLLIYGASNRYVGVPSRFSGSGSGTDFTLTISSLQPEDFATYYCAQFYSYPLTFGGGTKVEIK | 1.56 | 0.87 | 0.1 | 0.06 | 0.05
4 | PcOxP_DB01_D08 (scFv, V domains shown, scFv in periplasmic extract) VH: EVQLLESGGGLVQPGGSLRLSCAASGFTFSDAYMEWVRQAPGKGLEWVAASRNKANDYTTEYADSVKGRFTISRDNSKNTLYLQMNSLRAEDTAVYYCARDYYGSSYWYFDSWGQGTLVTVSS VL: DIQMTQSPSSLSASVGDRVTITCTASESLYSSKHKVHYLAWYQQKPGKAPKLLIYGASNRYIGVPSRFSGSGSGTDFTLTISSLQPEDFATYYCAQFYSYPLTFGGGTKVEIK | 1.08 | 0.58 | 0.08 | 0.05 | 0.05
5 | PcOxP_DB01_E04 (scFv, V domains shown, scFv in periplasmic extract) VH: EVQLLESGGGLVQPGGSLRLSCAASGFTFSDAYMEWVRQAPGKGLEWVAASRNKANDYTTEYADSVKGRFTISRDNSKNTLYLQMNSLRAEDTAVYYCARDYYGSSYWYFDTWGQGTLVTVSS VL: DIQMTQSPSSLSASVGDRVTITCTASESLYSSKHKVHYLAWYQQKPGKAPKLLIYGASNRYDGVPSRFSGSGSGTDFTLTISSLQPEDFATYYCAQFYSYPLTFGGGTKVEIK | 1.12 | 0.55 | 0.07 | 0.05 | 0.04
6 | PcOxP_DB01_E05 (scFv, V domains shown, scFv in periplasmic extract) VH: EVQLLESGGGLVQPGGSLRLSCAASGFTFSDYYMEWVRQAPGKGLEWVAASRNKANDYTTEYADSVKGRFTISRDNSKNTLYLQMNSLRAEDTAVYYCARDYYGSSYWYFDVWGQGTLVTVSS VL: DIQMTQSPSSLSASVGDRVTITCTASESLYSSKHKVNYLAWYQQKPGKAPKLLIYGASNRYIGVPSRFSGSGSGTDFTLTISSLQPEDFATYYCAQFYQYPLTFGGGTKVEIK | 1.39 | 0.95 | 0.11 | 0.06 | 0.06
7 | PcOxP_DB01_D09 (scFv, V domains shown, scFv in periplasmic extract) VH: EVQLLESGGGLVQPGGSLRLSCAASGFTESDFYMEWVRQAPGKGLEWVAASRNKANDYTTEYADSVKGRFTISRDNSKNTLYLQMNSLRAEDTAVYYCARDYYGSSYWYFDVWGQGTLVTVSS VL: DIQMTQSPSSLSASVGDRVTITCTASESLYSAKHKVHYLAWYQQKPGKAPKLLIYGSSNRYIGVPSRFSGSGSGTDFTLTISSLQPEDFATYYCAQFYDYPLTFGGGTKVEIK | 0.66 | 0.27 | 0.07 | 0.05 | 0.05
